What was measured:
[1] = system: S. cerevisiae 334; test: Pavlova sp. elongase PELO1 activity in yeast; assay type: cell-based, Saccharomyces cerevisiae; settings: for elongation of GLA to DGLA: 25 μM of GLA
Protocol: The construct pRPL-6-1 was transformed into S. cerevisiae 334 (Hoveland et al., supra) and screened for elongase activity. S. cerevisiae 334 containing the unaltered pYX242 vector was used as a negative control. The cultures were grown for 44 hours at 24°C, in selective media (Ausubel et al., supra), in the presence of 25 μM of GLA or EPA. In this study, DGLA or ω3-docosapentaenoic acid (DPA, 22:5n-3), respectively, was the predicted product of the elongase activity.
The constructs pRPL-6-B2 and pRPL-6-A3 were transformed into S. cerevisiae 334 (Hoveland et al., supra) and screened for elongase activity. S. cerevisiae 334 containing the unaltered pYX242 vector was used as a negative control. The cultures were grown for 44 hours at 24° C., in selective media (Ausubel et al., supra), in the presence of 25 μM of GLA or EPA. In this study, DGLA or ω3-docosapentaenoic acid (DPA, 22:5n-3), respectively, was the predicted product of the elongase activity.
To further confirm the substrate specificity of the algal elongation enzyme, described above and referred to herein as PELO1p, the recombinant yeast strain 334(pRPL-6-B2) was grown in minimal media containing n-6 fatty acids LA, GLA, DGLA, AA, or n-3 fatty acids ALA, STA, ETA, EPA, or 20:0, or 20:1. […] The levels of these fatty acids were 1.40% ADA and 2.54% […], respectively, of the total fatty acids in the strains containing the PELO1 sequence. […] No elongation of the saturated fatty acid 20:0, or monounsaturated fatty acid 20:1 was seen. Also, no elongation of the C18 substrates LA, GLA, ALA, or STA was seen.

[2] = system: S. cerevisiae 334; test: Comparison of MAELO and S. cerevisiae ELO2 PUFA elongase activity in baker's yeast; assay type: cell-based, Saccharomyces cerevisiae; settings: 25 μM GLA; FIG. 12
From the text: The ELO2 gene encoding for the yeast elongase was cloned from an S. cerevisiae genomic library (Origene, Rockville, Md.) using the primers RO514 (SEQ ID NO: 94) (5′-GGCTATGGATCCATGAATTCACTCGTTACTCAATATG-3′) and RO515 (SEQ ID NO: 95)(5′-CCTGCCAAGCTTTTACCTTTTTCTTCTGTGTTGAG-3′) incorporating the restriction sites (underlined) BamHI and HindIII (respectively). The ELO2 gene was cloned into the vector pYX242 at the BamHI and HindIII sites, designated pRELO, transformed into the S. cerevisiae host 334 (Hoveland et al., supra) and screened for PUFA elongase activity. The vector plasmid was used as a negative control and 334(pRAE-5) was grown to compare the PUFA elongase activity. The cultures were grown as previously described with no galactose in the media and 25 μM GLA added as a substrate. […] Additionally, when DGLA produced is expressed as a percent of the total lipids (shown in parenthesis, FIG. 12), the clones 334(pRELO-1) and 334 (pRELO-2) produced 0.153% and 0.2% DGLA respectively, while 334(pYX242) produced 0.185% DGLA. […] The M. alpina PUFA elongase activity is specific for this conversion as evidenced by the higher amount of DGLA produced compared to the control, 334(pYX242).

[3] = 25 μM of EPA, 44 hours at 24° C.

B1: pRPL-6-1: PELO1 clone with a single mutation relative to pRPL-6-B2 that dramatically reduced conversion (protein)
chain: MMLAAGYLLVLSAARQSFQQDIDNPNGAYSTSWTGLPIVMSVVYLSGVFGLTKYFENRKPMTGLKDYMFTYNLYQVIINVWCVVAFLLEVRRAGMSLIGNKVDLGPNSFRLGFVTWVHYNNKYVELLDTLWMVLRKKTQQVSFLHVYHHVLLMWAWFVVVKLGNGGDAYFAGLMNSIIHVMMYSYYTMALLGWSCPWKRYLTQAQLVQFCICLAHSTWAAVTGAYPWRICLVEVWVMVSMLVLFTRFYRQAYAKEAKAKEAKKLAQEASQAKAVKAE
modifications: Pavlova sp. (specific species unknown)
DPA, of total fatty acids [1, 3]: 0.34% | EPA (substrate), of total fatty acids [1, 3]: 32.28% | elongation of GLA to DGLA ([1]; 44 hours at 24° C.): no conversion of GLA to DGLA was seen

B2: PELO1: Pavlova sp. 459 elongase (SEQ ID NO:119) from plasmid pRPL-6-B2 (protein)
chain: MMLAAGYLLVLSAARQSFQQDIDNPNGAYSTSWTGLPIVMSVVYLSGVFGLTKYFENRKPMTGLKDYMFTYNLYQVIINVWCVVAFLLEVRRAGMSLIGNKVDLGPNSFRLGFVTWVHYNNKYVELLDTLWMVLRKKTQQVSFLHVYHHVLLMWAWFVVVKLGNGGDAYFGGLMNSIIHVMMYSYYTMALLGWSCPWKRYLTQAQLVQFCICLAHSTWAAVTGAYPWRICLVEVWVMVSMLVLFTRFYRQAYAKEAKAKEAKKLAQEASQAKAVKAE
modifications: Pavlova sp. (specific species unknown)
conversion of the substrate EPA to DPA ([1]; 25 μM of EPA, 44 hours at 24° C., FIG. 99): significant levels of conversion | elongation of GLA to DGLA ([1]; 44 hours at 24° C.): GLA was not elongated to DGLA | elongation of saturated fatty acid 20:0 or monounsaturated fatty acid 20:1 ([1]; FIG. 101): No elongation | elongation of the C18 substrates LA, GLA, ALA, or STA ([1]; FIG. 101): no elongation | conversion of AA to ADA ([1]; substrate AA, FIG. 101): 14.0% | level of ADA, of the total fatty acids ([1]; substrate AA, FIG. 101): 1.40% | conversion of EPA to product elongated by two carbon atoms ([1]; substrate EPA, FIG. 101): 14.1% | level of EPA (so in the source), of the total fatty acids ([1]; substrate EPA, FIG. 101): 2.54%

B3: 334(pRELO-1): individual clone of S. cerevisiae 334 overexpressing S. cerevisiae elongase ELO2 in pYX242 (pRELO) (protein, UniProt P25358 1-347, looked up)
Fatty acid elongase 2: MNSLVTQYAAPLFERYPQLHDYLPTLERPFFNISLWEHFDDVVTRVTNGRFVPSEFQFIAGELPLSTLPPVLYAITAYYVIIFGGRFLLSKSKPFKLNGLFQLHNLVLTSLSLTLLLLMVEQLVPIIVQHGLYFAICNIGAWTQPLVTLYYMNYIVKFIEFIDTFFLVLKHKKLTFLHTYHHGATALLCYTQLMGTTSISWVPISLNLGVHVVMYWYYFLAARGIRVWWKEWVTRFQIIQFVLDIGFIYFAVYQKAVHLYFPILPHCGDCVGSTTATFAGCAIISSYLVLFISFYINVYKRKGTKTSRVVKRAHGGVAAKVNEYVNVDLKNVPTPSPSPKPQHRRKR
DGLA produced as a percent of the total lipids [2]: 0.153% | amount of 20:3n-6 or DGLA produced relative to negative control pYX242 [2]: twice

B4: 334(pRELO-2): individual clone of S. cerevisiae 334 overexpressing S. cerevisiae elongase ELO2 in pYX242 (pRELO) (protein, UniProt P25358 1-347, looked up)
Fatty acid elongase 2: MNSLVTQYAAPLFERYPQLHDYLPTLERPFFNISLWEHFDDVVTRVTNGRFVPSEFQFIAGELPLSTLPPVLYAITAYYVIIFGGRFLLSKSKPFKLNGLFQLHNLVLTSLSLTLLLLMVEQLVPIIVQHGLYFAICNIGAWTQPLVTLYYMNYIVKFIEFIDTFFLVLKHKKLTFLHTYHHGATALLCYTQLMGTTSISWVPISLNLGVHVVMYWYYFLAARGIRVWWKEWVTRFQIIQFVLDIGFIYFAVYQKAVHLYFPILPHCGDCVGSTTATFAGCAIISSYLVLFISFYINVYKRKGTKTSRVVKRAHGGVAAKVNEYVNVDLKNVPTPSPSPKPQHRRKR
DGLA produced as a percent of the total lipids [2]: 0.2% | amount of 20:3n-6 or DGLA produced relative to negative control pYX242 [2]: twice

Reference: patent publication US7968692B2, “Elongase genes and uses thereof” (Abbott Laboratories, priority 1998, dated 2011)
